These results are taken from patent US20040241689A1 (published 2004).

The test deals with T1, human plasma fibronectin (human, UniProt P02751 32-2296).
T1 construct: Bought (Sigma); used in solution for ligand blots, coated on microtitre wells, or coupled to Sepharose; also called Fn; human Fn
Put plainly: ELISA, recombinant protein titrated on immobilized human Fn (100 ng/well), detected with antiserum. For orientation: In an ELISA, binding on a coated surface is turned into a signal by an enzyme label.

T1 sequence (P02751 other isoform, or with tags, fused parts or gaps limits assumed): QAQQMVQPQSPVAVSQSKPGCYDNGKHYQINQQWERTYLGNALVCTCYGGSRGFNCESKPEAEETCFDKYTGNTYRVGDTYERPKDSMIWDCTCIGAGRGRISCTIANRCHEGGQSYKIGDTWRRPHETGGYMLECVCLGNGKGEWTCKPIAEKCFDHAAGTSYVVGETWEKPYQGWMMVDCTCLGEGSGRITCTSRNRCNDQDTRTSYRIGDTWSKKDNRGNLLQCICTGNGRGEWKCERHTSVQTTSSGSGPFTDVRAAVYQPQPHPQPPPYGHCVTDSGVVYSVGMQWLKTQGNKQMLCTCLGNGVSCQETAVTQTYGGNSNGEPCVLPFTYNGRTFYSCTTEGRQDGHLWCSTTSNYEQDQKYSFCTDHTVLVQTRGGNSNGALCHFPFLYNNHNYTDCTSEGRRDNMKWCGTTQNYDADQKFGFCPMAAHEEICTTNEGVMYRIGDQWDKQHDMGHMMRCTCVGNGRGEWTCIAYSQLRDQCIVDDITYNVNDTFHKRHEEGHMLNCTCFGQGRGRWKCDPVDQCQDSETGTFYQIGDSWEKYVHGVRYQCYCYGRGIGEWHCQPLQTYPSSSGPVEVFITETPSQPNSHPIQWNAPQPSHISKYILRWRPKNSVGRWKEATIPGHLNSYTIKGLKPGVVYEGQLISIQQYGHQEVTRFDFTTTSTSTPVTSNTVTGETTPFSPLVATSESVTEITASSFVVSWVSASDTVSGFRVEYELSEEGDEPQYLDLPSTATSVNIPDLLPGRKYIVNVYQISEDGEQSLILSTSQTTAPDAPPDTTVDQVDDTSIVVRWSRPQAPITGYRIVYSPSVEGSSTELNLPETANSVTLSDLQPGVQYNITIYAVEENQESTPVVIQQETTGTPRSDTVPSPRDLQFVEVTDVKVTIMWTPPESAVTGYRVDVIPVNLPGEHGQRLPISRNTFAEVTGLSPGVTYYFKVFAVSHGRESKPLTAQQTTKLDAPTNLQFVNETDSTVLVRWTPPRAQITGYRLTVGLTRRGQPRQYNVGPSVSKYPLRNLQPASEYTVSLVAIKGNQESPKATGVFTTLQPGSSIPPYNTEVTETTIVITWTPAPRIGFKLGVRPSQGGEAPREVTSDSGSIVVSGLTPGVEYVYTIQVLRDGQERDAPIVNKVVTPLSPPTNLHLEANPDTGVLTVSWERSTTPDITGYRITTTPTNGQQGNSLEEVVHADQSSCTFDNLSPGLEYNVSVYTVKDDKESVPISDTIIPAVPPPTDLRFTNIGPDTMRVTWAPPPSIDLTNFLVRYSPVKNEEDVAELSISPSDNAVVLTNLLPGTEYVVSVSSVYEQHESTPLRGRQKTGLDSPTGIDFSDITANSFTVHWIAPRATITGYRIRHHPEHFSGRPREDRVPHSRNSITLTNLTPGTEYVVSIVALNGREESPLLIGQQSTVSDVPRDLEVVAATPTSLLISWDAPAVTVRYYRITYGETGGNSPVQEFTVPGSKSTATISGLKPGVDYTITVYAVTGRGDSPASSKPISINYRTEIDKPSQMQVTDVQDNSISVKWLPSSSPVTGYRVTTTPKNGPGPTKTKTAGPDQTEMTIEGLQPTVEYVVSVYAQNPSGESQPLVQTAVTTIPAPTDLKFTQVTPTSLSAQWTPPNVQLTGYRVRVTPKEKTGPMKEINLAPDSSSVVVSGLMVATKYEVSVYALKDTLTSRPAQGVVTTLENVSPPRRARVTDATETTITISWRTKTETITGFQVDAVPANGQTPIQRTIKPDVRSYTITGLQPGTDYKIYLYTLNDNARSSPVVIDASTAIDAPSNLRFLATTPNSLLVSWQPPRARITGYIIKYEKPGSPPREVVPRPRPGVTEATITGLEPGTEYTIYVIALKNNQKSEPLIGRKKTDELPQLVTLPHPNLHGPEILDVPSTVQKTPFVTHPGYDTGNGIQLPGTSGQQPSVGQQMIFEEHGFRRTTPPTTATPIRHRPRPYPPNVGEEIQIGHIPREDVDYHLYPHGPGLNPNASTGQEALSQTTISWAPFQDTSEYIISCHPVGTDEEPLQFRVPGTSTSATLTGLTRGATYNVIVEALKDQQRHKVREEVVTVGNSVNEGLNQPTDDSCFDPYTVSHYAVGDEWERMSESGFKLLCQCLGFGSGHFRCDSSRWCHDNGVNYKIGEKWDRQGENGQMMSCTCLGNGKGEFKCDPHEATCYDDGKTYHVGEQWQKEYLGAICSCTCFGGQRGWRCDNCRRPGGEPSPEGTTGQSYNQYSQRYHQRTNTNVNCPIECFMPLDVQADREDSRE

B1: recombinant NPDH (His10-NPDH-B), amino acids 1-244 of Mycoplasma pneumoniae pyruvate dehydrogenase E1 beta subunit (other)
chain: MSKTIQANNIEALGNAMDLALERDPNVVLYGQDAGFEGGVFRATKGLQKKYGEERVWDCPIAEAAMAGIGVGAAIGGLKPIVEIQFSGFSFPAMFQIFTHAARIRNRSRGVYTCPIIVRMPMGGGIKALEHHSETLEAIYGQIAGLKTVMPSNPYDTKGLFLAAVESPDPVVFFEPKKLYRAFRQEIPADYYTVPIGQANLISQGNNLTIVSYGPTMFDLINMVYGGELKDKGIELIDLRTISP
In general, Kd refers to a measure of binding affinity in units of concentration. As to B1, the Kd is 0.075 µg/mL.
